Measured values published in US20070100561A1, “Crystals of DPP-IV” (priority 2002, published 2007).

Tests used:
[1] = molecular target: DPP-IV as immobilized on the CM5 Biacore sensor (human) (UniProt P27487); experiment: SPR (Biacore), DPP-IV immobilized on CM5, Diprotin A in Hepes running buffer
[2] = molecular target: soluble extracellular domain of human dipeptidyl peptidase IV (sDPP-IV; residues 31-766), glycosylated (human) (UniProt P27487); experiment: enzyme inhibition, fluorogenic substrate Ala-Pro-7-amido-4-trifluoromethylcoumarin, assay buffer, 25° C., glycosylated sDPP-IV
soluble extracellular domain of human dipeptidyl peptidase IV (sDPP-IV; residues 31-766), glycosylated (human), sequence (P27487 31-766 limits assumed): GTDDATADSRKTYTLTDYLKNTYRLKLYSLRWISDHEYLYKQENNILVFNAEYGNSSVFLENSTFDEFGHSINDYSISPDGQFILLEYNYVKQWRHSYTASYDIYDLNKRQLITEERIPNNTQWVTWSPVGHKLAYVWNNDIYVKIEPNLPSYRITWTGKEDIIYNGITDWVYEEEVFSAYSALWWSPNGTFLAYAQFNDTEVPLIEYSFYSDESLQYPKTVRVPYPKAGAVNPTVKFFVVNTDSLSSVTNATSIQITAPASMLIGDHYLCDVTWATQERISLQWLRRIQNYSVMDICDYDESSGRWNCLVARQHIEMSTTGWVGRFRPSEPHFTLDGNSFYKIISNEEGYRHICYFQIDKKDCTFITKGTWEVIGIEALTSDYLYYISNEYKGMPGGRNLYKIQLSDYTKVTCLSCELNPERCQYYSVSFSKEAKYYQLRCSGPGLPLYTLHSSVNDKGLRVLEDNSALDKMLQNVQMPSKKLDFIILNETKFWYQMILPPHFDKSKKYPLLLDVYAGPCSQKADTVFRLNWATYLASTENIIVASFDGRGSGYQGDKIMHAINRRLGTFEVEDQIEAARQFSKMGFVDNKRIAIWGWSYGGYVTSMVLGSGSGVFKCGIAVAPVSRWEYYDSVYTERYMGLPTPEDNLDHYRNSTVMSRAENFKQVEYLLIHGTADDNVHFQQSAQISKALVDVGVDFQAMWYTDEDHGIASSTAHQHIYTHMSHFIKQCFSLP

DPP-IV as immobilized on the CM5 Biacore sensor (human), sequence (P27487 31-766 limits assumed): as above

Diprotin A (Ile-Pro-Ile) (peptide)
Kd [1]: 3.8 µM | Ki [2]: 4.63 µM
